Assays:
Experiment in all cases: FP; FP: PBS + 0.05% Tween20, 5 nM DNA, 1 h, room temperature; SPR: Biacore S200, SA chip, protein 0.1-4500 nM, running buffer not given in material; errors are SD
IRF4 DBD D106Y = molecular target: T1, IRF4 DBD D106Y (Homo sapiens, UniProt Q15306 20-132, D106Y); settings: protein: recombinant; tags: N-terminal His8-linker-His8-TEV, cleaved; label: 3' fluorescein (FAM); hairpin, TTTT loop
T1 sequence: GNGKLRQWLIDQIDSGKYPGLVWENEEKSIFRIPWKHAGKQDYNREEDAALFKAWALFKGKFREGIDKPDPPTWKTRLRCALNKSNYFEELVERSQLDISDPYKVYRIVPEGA

IRF4 DBD T95A = molecular target: T2, IRF4 DBD T95A (Homo sapiens, UniProt Q15306 20-132, T95A); settings: protein: recombinant; tags: N-terminal His8-linker-His8-TEV, cleaved; label: 3' fluorescein (FAM); hairpin, TTTT loop
T2 sequence: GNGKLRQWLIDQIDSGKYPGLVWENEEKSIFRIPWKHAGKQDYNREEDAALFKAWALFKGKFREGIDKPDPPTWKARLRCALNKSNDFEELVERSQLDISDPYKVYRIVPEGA

IRF4 DBD C99R = molecular target: T3, IRF4 DBD C99R (Homo sapiens, UniProt Q15306 20-132, C99R); settings: protein: recombinant; tags: N-terminal His8-linker-His8-TEV, cleaved; label: 3' fluorescein (FAM); hairpin, TTTT loop
T3 sequence: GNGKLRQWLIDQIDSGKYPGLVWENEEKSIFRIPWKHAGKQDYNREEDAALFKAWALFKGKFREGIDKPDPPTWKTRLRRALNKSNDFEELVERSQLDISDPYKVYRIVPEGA

IRF4 DBD C99S = molecular target: T4, IRF4 DBD C99S (Homo sapiens, UniProt Q15306 20-132, C99S); settings: protein: recombinant; label: 3' fluorescein (FAM); hairpin, TTTT loop
T4 sequence: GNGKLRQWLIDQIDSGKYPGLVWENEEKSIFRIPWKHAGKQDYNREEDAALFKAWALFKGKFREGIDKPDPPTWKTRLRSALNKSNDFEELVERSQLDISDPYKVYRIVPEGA

IRF4 DBD T95R = molecular target: T5, IRF4 DBD T95R (Homo sapiens, UniProt Q15306 20-132, T95R); settings: protein: recombinant; tags: N-terminal His8-linker-His8-TEV, cleaved; label: 3' fluorescein (FAM); hairpin, TTTT loop
T5 sequence: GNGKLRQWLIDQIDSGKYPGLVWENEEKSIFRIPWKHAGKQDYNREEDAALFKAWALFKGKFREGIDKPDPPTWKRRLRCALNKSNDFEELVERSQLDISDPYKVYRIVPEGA

IRF4 DBD wild-type = molecular target: T6, IRF4 DBD wild-type (Homo sapiens, UniProt Q15306 20-132); settings: protein: recombinant; tags: N-terminal His8-linker-His8-TEV, cleaved; label: 3' fluorescein (FAM); hairpin, TTTT loop
T6 sequence: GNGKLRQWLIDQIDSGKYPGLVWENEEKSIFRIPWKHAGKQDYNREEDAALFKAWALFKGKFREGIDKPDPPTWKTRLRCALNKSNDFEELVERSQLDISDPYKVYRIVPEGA

IRF4 DBD K123R = molecular target: T7, IRF4 DBD K123R (Homo sapiens, UniProt Q15306 20-132, K123R); settings: protein: recombinant; tags: N-terminal His8-linker-His8-TEV, cleaved; label: 3' fluorescein (FAM); hairpin, TTTT loop
T7 sequence: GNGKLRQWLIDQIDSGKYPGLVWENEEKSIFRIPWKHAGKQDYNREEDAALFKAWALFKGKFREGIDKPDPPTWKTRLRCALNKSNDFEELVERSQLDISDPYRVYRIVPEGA

IRF4 DBD S114N = molecular target: T8, IRF4 DBD S114N (Homo sapiens, UniProt Q15306 20-132, S114N); settings: protein: recombinant; tags: N-terminal His8-linker-His8-TEV, cleaved; label: 3' fluorescein (FAM); hairpin, TTTT loop
T8 sequence: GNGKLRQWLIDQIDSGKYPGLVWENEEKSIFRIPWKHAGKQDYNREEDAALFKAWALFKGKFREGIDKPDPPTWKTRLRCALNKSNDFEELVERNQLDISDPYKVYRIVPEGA

IRF4 DBD T95K = molecular target: T9, IRF4 DBD T95K (Homo sapiens, UniProt Q15306 20-132, T95K); settings: protein: recombinant; tags: N-terminal His8-linker-His8-TEV, cleaved; label: 3' fluorescein (FAM); hairpin, TTTT loop
T9 sequence: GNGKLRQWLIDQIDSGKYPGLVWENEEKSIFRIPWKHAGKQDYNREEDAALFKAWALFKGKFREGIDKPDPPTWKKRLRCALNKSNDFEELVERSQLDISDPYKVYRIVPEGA

IRF4 DBD C99A = molecular target: T10, IRF4 DBD C99A (Homo sapiens, UniProt Q15306 20-132, C99A); settings: protein: recombinant; tags: N-terminal His8-linker-His8-TEV, cleaved; label: 3' fluorescein (FAM); hairpin, TTTT loop
T10 sequence: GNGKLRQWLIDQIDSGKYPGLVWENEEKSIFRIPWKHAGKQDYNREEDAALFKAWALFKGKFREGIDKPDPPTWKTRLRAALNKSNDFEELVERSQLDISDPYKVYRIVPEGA

CTTGGTTTCACTTCCTGCGTTTTCGCAGGAAGTGAAACCAAG (structured_DNA) [IRE hairpin (FAM)]
Kd (IRF4 DBD D106Y): 219 ± 261 nM | Kd (IRF4 DBD T95A): 105 ± 59 nM | Kd (IRF4 DBD C99R): 279 ± 286 nM | Kd (IRF4 DBD C99S): 243 ± 238 nM | Kd (IRF4 DBD T95R): 151 ± 72 nM | Kd (IRF4 DBD wild-type): 565 ± 191 nM | Kd (IRF4 DBD K123R): 143 ± 34 nM | Kd (IRF4 DBD S114N): 181 ± 14 nM | Kd (IRF4 DBD T95K): 298 ± 154 nM | Kd (IRF4 DBD C99A): 353 ± 169 nM

— doi:10.1101/2025.03.12.642038, “Structural, biophysical and biological analysis and characterisation of IRF4 DNA-binding domain mutations associated with multiple myeloma”
